Measurements published in patent US20170349943, “METHODS FOR DETECTING ENHANCED NMDA RECEPTOR FUNCTION AND USES THEREOF” (INOVA HEALTH SYSTEM, published 2017).

Target: T1, Elk-1 (Homo sapiens, UniProt P19419 P19419:1-428)
T1 sequence: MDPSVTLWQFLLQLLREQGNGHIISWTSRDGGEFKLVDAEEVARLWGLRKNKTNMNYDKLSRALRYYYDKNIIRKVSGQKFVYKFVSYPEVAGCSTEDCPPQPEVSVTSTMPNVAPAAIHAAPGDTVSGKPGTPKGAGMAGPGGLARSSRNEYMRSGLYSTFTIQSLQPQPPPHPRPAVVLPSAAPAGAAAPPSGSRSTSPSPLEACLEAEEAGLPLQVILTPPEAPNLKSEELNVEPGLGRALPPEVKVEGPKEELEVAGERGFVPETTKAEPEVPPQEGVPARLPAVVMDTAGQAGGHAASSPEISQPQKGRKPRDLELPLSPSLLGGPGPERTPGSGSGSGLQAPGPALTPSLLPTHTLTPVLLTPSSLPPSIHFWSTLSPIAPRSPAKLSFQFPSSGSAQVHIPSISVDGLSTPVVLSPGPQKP
Assay: EMSA; bound to a greater extent than G allele; 50 mM HEPES pH 7.5, 10 mM MgCl2, on ice 1 h, then Elk-1 antibody
Settings: tags: recombinant human Elk-1, Sigma Aldrich
Protocol: FIG. 2 depicts binding of recombinant Elk-1 protein (an ETS transcription factor) to double stranded DNAs containing the single nucleotide polymorphism (SNP) rs3764030 variant A allele from the human GRIN2B gene promoter. Double-stranded DNA targets (Methods) were sequentially incubated with 1 μg recombinant human Elk-1 protein in EMSA buffer, then incubated with the Elk-1 antibody 20 minutes. […] Samples were electrophoresed through 6% polyacrylamide gels in HEPES buffer pH 6.3, without polydldC. The gel was then stained with the SYBR Green to visualize DNA and SYPRO Ruby for protein bound to DNA. The stained gel was scanned using G:BOX (Syngene, US) for imaging. Elk-1 bound to DNA is indicated by the arrow.
The complementary pairs of DNA oligonucleotides were first annealed in Biorad C1000 thermocycler with 1° C./1 min decreasing from 95° C. to 20° C. The annealing buffer composition was 10 mM Tris-HCl pH 8.0, 1 mM EDTA and 50 mM NaCl. The annealed dsDNA was then incubated with 1 μg recombinant human Elk-1 protein (Sigma Aldrich, US) on ice for 1 hour in EMSA buffer, then incubated with the Elk-1 antibody (SC-355)(Santa Cruz Technology, US) 20 minutes in room temperature. The compositions of EMSA buffer was 50 mM HEPES pH7.5, 10 mM MgCl₂, 5% glycerol, 1 mM DTT, 0.3% BSA and 1 mM EDTA. […]

B1: GRIN2B promoter rs3764030 A allele probe (dsDNA)
DNA 1: CATCTCCGGGGAACACGCGAA
DNA 2: TTCGCGTGTTCCCCGGAGATG
B1: binds.
